In article PMC8010706:
Positions count from the first letter of the chain named. Names and notes keep the numbering of the source.

T1: MBP-Sbh1 full length, P52870
T1 chain: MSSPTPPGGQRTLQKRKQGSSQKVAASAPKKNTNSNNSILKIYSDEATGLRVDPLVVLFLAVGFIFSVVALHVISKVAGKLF

B1: His-tagged hSgt2-C (hSgt2 213-313), O43765 L224D; F280D (protein)
chain: TGGVGSFDIAGDLNNPGFMSMASNLMNNPQIQQLMSGMISGGNNPLGTPGTSPSQNDLASLIQAGQQDAQQMQQQNPELIEQLRSQIRSRTPSASNDDQQE
B2: His-tagged hSgt2-C (hSgt2 213-313), O43765 L224D (protein)
chain: B1 chain with D68F
B3: His-tagged hSgt2-C (hSgt2 213-313), O43765 M247D (protein)
chain: B1 chain with D12L, M35D, D68F
B4: His-tagged hSgt2-C (hSgt2 213-313), O43765 M233D; F280D (protein)
chain: B1 chain with D12L, M21D
B5: His-tagged hSgt2-C (hSgt2 213-313), O43765 M233D; L295D (protein)
chain: B1 chain with D12L, M21D, D68F, L83D
B6: His-tagged hSgt2-C (hSgt2 213-313), O43765 F280D (protein)
chain: B1 chain with D12L
B7: His-tagged hSgt2-C (hSgt2 213-313), O43765 L295D (protein)
chain: B1 chain with D12L, D68F, L83D
B8: His-tagged hSgt2-C (hSgt2 213-313), O43765 L224D; L295D (protein)
chain: B1 chain with D68F, L83D
B9: His-tagged ySgt2-C (ySgt2 222-346), Q12118 M315D (protein)
chain: SLNLEKTVPEQSRDADVDASQGASAGGLPDLGSLLGGGLGGLMNNPQLMQAAQKMMSNPGAMQNIQKMMQDPSIRQMAEGFASGGGTPNLSDLDNNPALRNMAGNLFGGAGAQSTDETPDNENKQ
B10: His-tagged ySgt2-C (ySgt2 222-346), Q12118 M277D (protein)
chain: B9 chain with M56D, D94M
B11: His-tagged ySgt2-C (ySgt2 222-346), Q12118 I286D (protein)
chain: B9 chain with I65D, D94M
B12: His-tagged ySgt2-C (ySgt2 222-346), Q12118 L320D (protein)
chain: B9 chain with D94M, L99D
B13: His-tagged ySgt2-C (ySgt2 222-346), Q12118 L327D (protein)
chain: B9 chain with D94M, L106D
B14: His-tagged ySgt2-C (ySgt2 222-346), Q12118 I295D (protein)
chain: B9 chain with I74D, D94M
B15: His-tagged ySgt2-C (ySgt2 222-346), Q12118 M323D (protein)
chain: B9 chain with D94M, M102D
B16: His-tagged ySgt2-C (ySgt2 222-346), Q12118 M290D (protein)
chain: B9 chain with M69D, D94M
B17: MBP-Sbh1 full length (natural protein)
chain: T1 chain

Biological target: T1, MBP-Sbh1 full length, P52870
Test: pull-down (Ni-NTA capture after coexpression, Coomassie quantification)
Conditions: chain shown with the change; capture assay repeated three times; parent: 1

ratio to parent	Molecule
0.21	B1
0.71	B2
0.68	B3
0.59	B4
0.44	B5
0.69	B6
0.86	B7
0.16	B8
0.34	B9
0.14	B10
0.13	B11
0.23	B12
0.4	B13
0.21	B14
0.29	B15
0.18	B16

The molecules below were run against hSgt2 M233D (Homo sapiens) (UniProt O43765) (assay: pull-down; capture assay: His-tagged Sgt2 construct coexpressed with MBP-Sbh1 in E. coli; lysate incubated in batch with Ni-NTA resin at 4 °C for 1 h, washed with 20 mM Tris, 150 mM NaCl, 25 mM imidazole, 10 mM BME, pH 7.5, eluted with 300 mM imidazole; Coomassie-stained gel, MBP-Sbh1/Sgt2 ratio normalised to wild type). Conditions: not given.

percent reduction of binding relative to wild type [%]	Molecule
36	B17

These molecules were tested against MBP-Sbh1 full length (UniProt P52870) (assay: pull-down (Ni-NTA capture after coexpression, Coomassie quantification)). Conditions: experiments performed 3 to 4 times; parent: 1.

ratio to parent	Molecule
0.27	His-tagged hSgt2-C (hSgt2 213-313) (from UniProt O43765) H2/3A
0.27	His-tagged ySgt2-C (ySgt2 222-346) (from UniProt Q12118) H4A
0.21	His-tagged hSgt2-C (hSgt2 213-313) (from UniProt O43765) H1A
0.55	His-tagged hSgt2-C (hSgt2 213-313) (from UniProt O43765) H4A
0.63	His-tagged hSgt2-C (hSgt2 213-313) (from UniProt O43765) H0A
0.67	His-tagged hSgt2-C (hSgt2 213-313) (from UniProt O43765) H5A
0.32	His-tagged ySgt2-C (ySgt2 222-346) (from UniProt Q12118) H5A
0.1	His-tagged ySgt2-C (ySgt2 222-346) (from UniProt Q12118) H2A
0.03	His-tagged ySgt2-C (ySgt2 222-346) (from UniProt Q12118) H1A
0.19	His-tagged ySgt2-C (ySgt2 222-346) (from UniProt Q12118) H3A
